Results: paper PMC3285296

Tests used:
Experiment in all cases: co-IP
[1] = target: Flag-tagged glycogen phosphorylase (GP), wild type (human) (UniProt P06737)
[2] = target: Flag-tagged glycogen phosphorylase K470Q/K796Q (GP^K2Q) (human) (UniProt P06737)
[3] = target: Flag-tagged glycogen phosphorylase (GP), wild type (human) (UniProt P06737); remark: listed apart in the source

increase of the co-precipitate with NAM+TSA against untreated cells [1] | PP1α co-immunoprecipitated, against wild type GP [2] | increase of the co-precipitate in 25 mM glucose against glucose free medium [3] | Molecule
> 100% | 2 fold |  | HA-tagged protein phosphatase 1 alpha (HA-PP1α) (from UniProt P62136 1-330) (enzyme)
 |  | 100% | HA-tagged hepatic glycogen binding subunit GL of PP1 (HA-GL) (natural protein) MMAVDIEYRYNCMAPSLRQERFAFKISPKPSKPLRPCIQLSSKNEASGMVAPAVQEKKVKKRVSFADNQGLALTMVKVFSEFDDPLDMPFNITELLDNIVSLTTAESESFVLDFSQPSADYLDFRNRLQADHVCLENCVLKDKAIAGTVKVQNLAFEKTVKIRMTFDTWKSYTDFPCQYVKDTYAGSDRDTFSFDISLPEKIQSYERMEFAVYYECNGQTYWDSNRGKNYRIIRAELKSTQGMTKPHSGPDLGISFDQFGSPRCSYGLFPEWPSYLGYEKLGPYY
